# Laboratory results reported in US7507716B2, “Method for treating pain with prolactin antagonists” (Board of Regents, The University of Texas System, priority 2005, dated 2009).
# B1: PRL: Ovine PRL [oPRL-21, BIO] provided by NHPP; prolactin polypeptide hormone (protein, UniProt P01240 31-229, looked up)
# Prolactin: TPVCPNGPGNCQVSLRDLFDRAVMVSHYIHNLSSEMFNEFDKRYAQGKGFITMALNSCHTSSLPTPEDKEQAQQTHHEVLMSLILGLLRSWNDPLYHLVTEVRGMKGVPDAILSRAIEIEEENKRLLEGMEMIFGQVIPGAKETEPYPVWSGLPSLQTKDEDARHSAFYNLLHCLRRDSSKIDTYLKLLNCRIIYNNNC
# Legend:
# TG neurons [1] = assay: Patch clamp, heat-evoked currents (Iheat); assay type: cell-based, rat; details: neurons from intact female rats
# Description: TRPV1 is known to be activated by noxious heat (>42° C). Furthermore, this effect is itself sensitized by hyperalgesic agents such as bradykinin (Cesare et al., 1999) and NGF (Chuang et al., 2001; Zhu et al., 2004). To determine whether PRL sensitizes heat-evoked currents (Iheat), the effect that pre-treatment of intact female rat TG neurons with PRL has on Iheat was examined. […] Data are presented as mean±SEM (n=8-12/group, ***=p<0.001 versus vehicle control; two-tailed unpaired T test). […] (FIG. 6B) and 48° C. (FIG. 6C). Data are presented as mean±SEM (n=8-12/group, ***=p<0.001 versus vehicle control; two-tailed unpaired T test). FIG. 6D and FIG. 6E are representative traces of Iheat recordings from TG neurons pretreated with PRL or vehicle (6D); and plotting Iheat as a function of temperature (FIG. 6E). PRL lowered the activation temperature threshold and increased the magnitude of Iheat. In addition, the magnitude of the Iheat evoked at 43° C. (I43) and 48° C. (I48) points in neurons pretreated with prolactin or vehicle was measured.
# Patch Clamp Electrophysiology: All recordings were performed in whole-cell voltage-clamp (Vh=−60 mV) configuration. Recordings were acquired at 22-24° C. from the somata of neurons (15-45 pF) using an Axopatch200B amplifier and pCLAMP9.0 software (Axon Instruments, Union City, Calif.). Data were filtered at 0.5 kHz and sampled at 2 kHz. Borosilicate pipettes (Sutter, Novato, Calif.) were polished to resistances of 3-5 MΩ in pipette solution. Access resistance was compensated (40-80%) to 7-10 MΩ values when appropriate. Cell diameters were calculated using d=√[100*Cm/π], where d (μm) is cell diameter and Cm (pF) is membrane capacitance.
# For the recording of heat-activated currents (Iheat), SES was heated on-line by a Peltier device (Warner Instruments, Hamden, Conn.) and locally delivered via a glass tube positioned in close proximity to the neuron. Temperature values were acquired with a thermister probe (0.5-1.5 mm size; Harvard Apparatus, Holliston, Mass.) situated at the orifice of the glass tube for local delivery of heated SES. […]
# TG neurons [2] = assay: Capsaicin-evoked iCGRP release from cultured TG neurons (RIA); assay type: cell-based, rat; details: PRL 40 nM, capsaicin 50 nM
# Description: Release of iCGRP from cultured neurons was measured by radioimmunoassay. Data are presented as mean % of vehicle±SEM (n=4/group, *=P<0.05 and **=P<0.01 vs. iCGRP levels of each control group; two-tailed unpaired T test).
# Rat trigeminal ganglia (TG) primary cultures: The TG from ovariectomized or intact female rats were quickly removed after decapitation and neuronal cultures were prepared as previously described (Fehrenbacher et al., 2005; Patwardhan et al., 2005). The trypsin treatment was omitted in TG cultures prepared for electrophysiological recording and Ca^2+ imaging. Cells were plated on 24 well Poly-D-Lysine coated plates (for iCGRP experiments), 6 well Poly-D-Lysine plates (for PRL release experiments), Poly-D-Lysine/laminin-coated coverslips (for single cell studies) or 10 cm plates (for phosphorylation experiments), respectively. The TG cultures were maintained at 37° C. and 5% CO2. […] The media were replaced at the end of 24 h and then 48 h later.
# CGRP release assay: All culture experiments were performed on day 5 at 37° C. using modified Hanks (Gibco) buffer (10.9 mM HEPES, 4.2 mM sodium bicarbonate, 10 mM dextrose and 0.1% bovine serum albumin were added to 1× Hanks). After two initial washes, a 15 min baseline sample was collected. […]
molecule,measurement,setting,value
B1,threshold temperature for Iheat activation,"TG neurons [1]; PRL 40 nM for 5 min, n=16, vehicle 41.9±0.67",36.8±0.58 °C
same,inward currents evoked by 43° C. (I43),TG neurons [1]; PRL pretreatment,significantly increased
same,inward currents evoked by 48° C. (I48),TG neurons [1]; PRL pretreatment,significantly increased
same,PRL sensitization of capsaicin-evoked iCGRP release,TG neurons [2]; OVX TG neurons cultured 5 days with 50 nM estradiol,significantly restored
same,PRL sensitization of capsaicin-evoked iCGRP release,TG neurons [2]; OVX TG neurons cultured in the absence of E2,no effect was observed
